“Also recorded” adds a separate entry of the source.
Columns and labels:
[1] = tested on: Wild type and SorCS2−/− mice; assay: Marble burying test; type: in vivo, mouse; settings: fluoxetine 20 mg/kg injected 1 hour before, 20 min test
Excerpt: The SorCS2 knockout mouse has been back-crossed for ten generations into C57/BL6J. Behavioral studies were done with the backcrossed homozygous mice compared to the same C57/BL6J substrain that was used for backcrossing (Glerup, Olsen et al., 2014). In the presented experiments, all mice lines had been backcrossed for ten generations into C57/BL6Jbom (Taconic) and littermate controls were used for experiments. All experiments were approved by the Danish Animal Experiments Inspectorate under the Ministry of Justice (Permit 2011/561-119) and carried according to institutional and national guidelines. All animals were bred and housed at the Animal Facility at Aarhus University. Animals were housed in groups of up to five mice per plastic cage (42×25×15 cm) under pathogen-free conditions with a 12-hour light/12-hour dark schedule and fed standard chow (Altromin #1324) and water ad libitum. Cages were cleaned every week and supplied with bedding and nesting material, a wooden stick, and a metal tunnel. Behavioral experiments were carried out using 12-16 weeks old male mice during their light cycle between 9:00 a.m. to 5:00 p.m. […]
Wild type and SorCS2^−/− mice were injected with either saline only or saline containing 20 mg/ml (20 mg/kg) fluoxetine (trade name Prozac™). […] They were then left for 20 min and hereafter the number of marbles that were more than 50% buried in each cage was counted.

SorCS2 [2] = assay: Western blot of SorCS2 expression in hippocampus and cortex after fluoxetine; type: in vivo, mouse; settings: wt mice, fluoxetine in water for 3 weeks
Experimental: 3 wild-type mice were given either normal tap water or tap water containing 0.8 mg/ml fluoxetine for 3 weeks with water-chance once a week. Hereafter, the mice were euthanized by cervical dislocation and the hippocampus and cortex was dissected out. The samples were lysed in lysis buffer containing protease and phosphatase inhibitors. The samples were then analysed by Western blotting to see if treatment with fluoxetine can increase SorCS2 levels.

hippocampal neurons [3] = assay: BDNF induced formation of inhibitory synapses and spine density in vitro; type: cell-based, mouse; settings: 1 nM BDNF; for number of glutamatergic synapses/spines: 24 hours; for number of inhibitory synapses: 72 hrs
Experimental: For studies on BDNF induced formation of inhibitory synapses, neurons from p0 wild type (wt) and SorCS2^−/− pups were seeded at a density of 100.000 neurons per coverslip. After 7 days in vitro, the medium was changed to medium containing either 1 nM of BDNF or similar volumes of sterile D-PBS. Neurons were incubated for 72 hrs at 37° C. and 5% CO2 before being fixed for 20 min in ice cold 4% PFA. After three 5 min washes in D-PBS, the neurons were stained against gephyrin, an inhibitory marker, and co stained against Map2, a marker of the dendritic tree. Images were taken by confocal microscopy and analysed using Imaris software.
To determine spine density in vitro, hippocampal neurons were isolated at PO and grown in culture at a density of 100.000 neurons pr coverslip. After 7 days in vitro the neurons were transfected with a plasmid containing GFP using Lipofectamine LTX reagent (15338-100) using the suppliers protocol. At 13 days in vitro the medium was changed to medium containing either 1 nM or 0 nM BDNF. Hereafter the cells were left in the incubator at 37° C. for 24 hours before being fixed in 4% PFA for 20 minutes at room temperature. To determine spine density, confocal images were obtained and subsequently assessed using Imaris software.

hippocampal neurons [4] = assay: Dendritic branching of neurons in vitro upon BDNF; type: cell-based, mouse; settings: 1 nM BDNF
Experimental: (§1) To determine dendritic branching of neurons in vitro, hippocampal neurons were isolated from PO mice and grown in culture at a density of 5000 neurons per coverslip. After 24 hours the medium was changed to medium containing either 1 nM of BDNF or same volume of sterile PBS. Hereafter, the cells were left in the incubator at 37° C. for 72 hours before being fixed in 4% PFA for 20 minutes at room temperature. To determine cell morphology, the neurons were stained against β-tubulin (β-tubulin mouse mAb chemicon MAB3408). Images were taken using a confocal microscope and the branching patterns were analysed using Zen 2011 Image Processing (Carl Zeiss) as follows: The 1st, 2nd, 3rd and 4th order branching patterns the neurons were counted where 1S^t order branches were defined as neurites protruding from the cell soma and were only considered 1st order branches if the branch was longer than the diameter of the soma. 2nd order branches were defined as processes extending from the 1st order branch, and so forth.
For studies on BDNF induced morphological changes of GABAergic interneurons, neurons from p3 WT and SorCS2^−/− pups were seeded at a density of 5.000 neurons per coverslip. The WT and SorCS2^−/− neurons were seeded in 1 mL Neurobasal-A Medium containing either 1 nM BDNF or similar volumes of sterile D-PBS. The neurons were incubated for 72 hrs at 37° C. and 5% CO2 before being fixed for 20 min in ice cold 4% PFA. After three 5 min washes in D-PBS, neurons were stained, against mouse anti-β-tubulin and rabbit anti-GABA. Pictures were taken using a confocal microscope and the branching patterns were analysed using Zen 2011 Image Processing (Carl Zeiss) as follows: The 1st, 2nd, 3rd and 4th order branching patterns the neurons were counted where 1st order branches were defined as neurites protruding from the cell soma and were only considered 1st order branches if the branch was longer than the diameter of the soma. 2nd order branches were defined as processes extending from the 1st order branch, and so forth.

SorCS2 [5] = assay: SorCS2 phosphorylation (32P labelling, immunoprecipitation, autoradiography); type: cell-based, mouse; settings: wt neurons; 1 nM BDNF 10 minutes vs unstimulated
Experimental: For studies on SorCS2 phosphorylation (FIG. 4A), wt neurons were seeded at a density of 2.5 million pr 6-well. After five days in culture, the medium was changed to phosphate-free medium+0.4 mCi/ml of ^32P labelled phosphate and left for 4 hours 37° C. and 5% CO2. Hereafter, the neurons were washed once in phosphate-free medium and medium is added containing 1 nM BDNF or similar volume of sterile PBS. This is left on for 10 minutes before removing the media and adding lysis buffer containing protease- and phosphatase-inhibitors. From the samples, immunoprecipitation was carried out using antibodies against SorCS2. The samples were then analyzed by SDS-gel and subsequent autoradiography to evaluate the phosphorylation of SorCS2.

TrkB = molecular target: T1, TrkB (Homo sapiens, UniProt Q16620); assay: TrkB phosphorylation in transfected hSY5Y cells; type: cell-based; settings: hSY5Y cells with SorCS2 and TrkB compared to only TrkB
T1 construct: expressed in transfected cells; host or cells: hSY5Y cells
Excerpt: (§2) In FIG. 6 it is shown that SorCS2 is important for phosphorylation of the BDNF-receptor TrkB.hSY5Y cells were transfected with either SorCS2, TrkB or both (FIG. 6, panels A and B). Upon stimulation with BDNF a 2.5 fold increase in phosphorylation of TrkB was seen when SorCS2 was also present, compared to when only TrkB was present (FIG. 6, panel B). […] This indicates a critical role of SorCS2 in mediating the response to BDNF

PLCy = PLCy phosphorylation in transfected hSY5Y cells; type: cell-based; settings: hSY5Y cells with SorCS2 and TrkB compared to only TrkB
Excerpt: as §2

SorCS2−/− neurons = assay: BDNF-mediated branching of SorCS2−/− neurons transfected with SorCS2 constructs; type: cell-based, mouse
Experimental: To study the role of SorCS2 in BDNF-mediated branching (FIG. 4B-G), SorCS2^−/− neurons were seeded at a density of 100.000 neurons pr coverslip in media containing the desired SorCS2 mutant together with GFP. After 6 hours, the medium was changed to normal neurobasal A medium containing either 1 nM BDNF or similar volume of sterile PBS. The neurons were incubated for 72 hrs at 37° C. and 5% CO2 before being fixed for 20 min in ice cold 4% PFA, before a three times 5 min washes in D-PBSPictures were taken using a confocal microscope and the branching patterns were analysed using Zen 2011 Image Processing (Carl Zeiss) as follows: The 1st, 2nd, 3rd and 4th order branching patterns of GFPpositive neurons were counted where 1st order branches were defined as neurites protruding from the cell soma and were only considered 1st order branches if the branch was longer than the diameter of the soma. 2nd order branches were defined as processes extending from the 1st order branch, and so forth. […]

wild type neurons = assay: Morphological (neurotrophic) response of wild type neurons to SorCS2 tail peptides; type: cell-based, mouse; settings: wt neurons; 1 nM BDNF
Experimental: as §1
We next created peptides similar to the intracellular tail of SorCS2. The first peptide had similar sequence to wild type SorCS2 tail except the serines at position 1125, 1128 and 1130, which had been changed to aspartic acids. Furthermore a TAT sequence had been added to facilitate entry into the neurons (FIG. 11), denoted “Ppep”.

T1 sequence (Q16620 32-822, species assumed): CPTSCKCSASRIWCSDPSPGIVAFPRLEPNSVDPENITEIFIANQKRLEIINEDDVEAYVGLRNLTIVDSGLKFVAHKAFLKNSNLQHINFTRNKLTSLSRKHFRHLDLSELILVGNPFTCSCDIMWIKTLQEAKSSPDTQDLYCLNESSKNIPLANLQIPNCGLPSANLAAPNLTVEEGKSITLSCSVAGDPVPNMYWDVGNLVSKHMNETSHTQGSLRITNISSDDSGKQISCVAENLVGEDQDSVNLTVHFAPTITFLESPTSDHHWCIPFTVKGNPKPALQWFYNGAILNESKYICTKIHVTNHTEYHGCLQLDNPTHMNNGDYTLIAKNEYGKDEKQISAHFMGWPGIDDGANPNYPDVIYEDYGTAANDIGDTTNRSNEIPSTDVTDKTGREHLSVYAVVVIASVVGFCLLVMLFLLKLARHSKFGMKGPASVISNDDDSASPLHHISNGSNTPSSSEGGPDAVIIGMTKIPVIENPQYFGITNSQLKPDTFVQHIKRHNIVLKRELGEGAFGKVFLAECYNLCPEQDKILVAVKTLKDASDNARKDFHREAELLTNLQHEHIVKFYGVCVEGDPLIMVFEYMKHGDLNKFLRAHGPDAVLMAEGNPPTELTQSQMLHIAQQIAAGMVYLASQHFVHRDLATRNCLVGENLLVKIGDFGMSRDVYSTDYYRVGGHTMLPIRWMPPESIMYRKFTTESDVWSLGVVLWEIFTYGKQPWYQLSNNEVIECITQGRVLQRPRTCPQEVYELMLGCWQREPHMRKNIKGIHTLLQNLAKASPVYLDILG

CNCCC(Oc1ccc(C(F)(F)F)cc1)c1ccccc1 (stereo not drawn) [fluoxetine]
number of marbles buried ([1]; SorCS2−/− mice): this effect was not observed; also recorded: this was not the case
number of marbles buried ([1]; wild type mice): calmed and buried less marbles
expression of SorCS2 (Western blot) (SorCS2 [2]; cortex): not in the cortex
expression of SorCS2 (Western blot) (SorCS2 [2]; hippocampus): increase

B1: BDNF: brain-derived neurotrophic factor, ligand of tyrosine kinase receptor TrkB (protein, UniProt P23560 19-247, looked up)
Neurotrophic factor BDNF …: APMKEANIRGQGGLAYPGVRTHGTLESVNGPKAGSRGLTSLADTFEHVIEELLDEDQKVRPNEENNKDADLYTSRVMLSSQVPLEPPLLFLLEEYKNYLDAANMSMRVRRHSDPARRGELSVCDSISEWVTAADKKTAVDMSGGTVTVLEKVPVSKGQLKQYFYETKCNPMGYTKEGCRGIDKRHWNSQCRTTQSYVRALTMDSKKRIGWRFIRIDTSCVCTLTIKRGR
number of glutamatergic synapses/spines (hippocampal neurons [3]; neurons lacking SorCS2): not the case
number of inhibitory synapses (hippocampal neurons [3]; neurons lacking SorCS2): not the case
number of glutamatergic synapses/spines (hippocampal neurons [3]; wt neurons): increase
number of inhibitory synapses (hippocampal neurons [3]; wt neurons): increase
dendritic complexity (branching) (hippocampal neurons [4]; GABAergic interneurons lacking SorCS2, 72 hrs): non-responsive
dendritic complexity (branching) (hippocampal neurons [4]; glutamatergic neurons lacking SorCS2, 72 hours): not the case
dendritic complexity (branching) (hippocampal neurons [4]; wt GABAergic interneurons, 72 hrs): increase in complexity
dendritic complexity (branching) (hippocampal neurons [4]; wt glutamatergic neurons, 72 hours): increase in complexity
phosphorylation of SorCS2 (SorCS2 [5]): increased phosphorylation
increase in phosphorylation of TrkB upon BDNF stimulation (TrkB): 2.5 fold
phosphorylation of PLCy upon BDNF stimulation (PLCy): significant increase
neurite branching response to BDNF (SorCS2−/− neurons; SorCS2−/− neurons transfected with S1128A variant): lost
neurite branching response to BDNF (SorCS2−/− neurons; SorCS2−/− neurons transfected with S1130A variant): lost
neurite branching response to BDNF (SorCS2−/− neurons; SorCS2−/− neurons transfected with full length SorCS2, 1 nM BDNF): rescues the response; also recorded: able to rescue response
neurite branching response to BDNF (SorCS2−/− neurons; SorCS2−/− neurons transfected with full-length variant S1125A, S1128A and S1130A): diminished
neurite branching response to BDNF (SorCS2−/− neurons; SorCS2−/− neurons transfected with variant lacking the intracellular domain): no increase in neurite branching
neurite branching response to BDNF (SorCS2−/− neurons; SorCS2−/− neurons transfected with variant with deletion of 56 amino acids): lost
neurite branching response to BDNF (SorCS2−/− neurons; SorCS2−/− neurons transfected with variant with deletion of the last 21 amino acids): still rescued the phenotype
neurite branching response to BDNF (SorCS2−/− neurons; SorCS2−/− neurons transfected with variant with deletion of the last 35 amino acids): still rescued the phenotype
complexity of neurons compared to neurons without BDNF (FIG. 13) (wild type neurons): increased in complexity

Reference: patent US20190345216A1, “SorCS PEPTIDES AND USES THEREOF” (AARHUS UNIVERSITET, priority 2015, published 2019)
